From the supplement of paper PMC9170038

These sequences were tested on K4 kissing-loop RNA reporter (assay: apparent KD of K4 kissing-loop reporter; higher = weaker reporter binding). Conditions: Eterna round: R107; input ligand: arginine 13.2 mM.
Description: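 RNA-MaP round R107: designed RNA switches with theophylline, tryptophan, arginine or FMN aptamers are transcribed on-chip within common flanks. They are titrated with a labelled K4 kissing-loop RNA reporter in RNA-MaP buffer (100 mM Tris pH 7.5, 80 mM KCl, 4 mM MgCl2), without ligand or with the indicated ligand. Median apparent KD per design.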
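Also: bound reporter read as fluorescence of individual clusters on recovered sequencing chips by microscopy, with normalized cluster intensities fitted with a binding model.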

Q: Which “apparent KD of K4 kissing-loop reporter” value does the source give for “GGACGCCGGUCGGCCGCCACUCACAGCAGUGAUGUUCCUGAGAAUGUAGCGGAGUGAUGUUCCGAGAGGACCGGGACUGCAGUUU [Same State Tryptophan B GF 8]” here?
A: Its value is 644 nM.

Q: For “GUUGAUCAUGGAAGGAGCGCCCAUUGUCGACACGAGUGAUGUUCGUGUCGUUAAUUAUGAGGGCAGGUAGGUCGCCGUGUGCUUU [Soqugebi]”, which “apparent KD of K4 kissing-loop reporter” value is on record?
A: Its value is 103 nM.

Q: How did the “apparent KD of K4 kissing-loop reporter” value turn out when “UGACUGGAUGGAAGGAGCGCUAAACUCCUAGUGAUGUUAGGGAUAUGAGGCAAAGCCUUGAAGCAGGUAGGUCGCCAUCUAGUCU [FiskerMod 26 - Jieux - Same State - Arginine B]” was run?
A: Its value is 126 nM.

Q: How did the “apparent KD of K4 kissing-loop reporter” value turn out when “AGACUACCACACUGUCAAUAGACAGUGAGCUAGGAUAUGCUGAUAAGCAGAAGGAGUGAUGUUCCCAGGUAGUCAAUAAAAUAAU [FmnAX 13 G29+C66]” was run?
A: Its value is 192 nM.

Q: How did the “apparent KD of K4 kissing-loop reporter” value turn out when “GCUAAGUGAUGUUUAUGCCGCCGACCGGAUACCAGCUACUAGGCAAGCCCUUGGCAGCCGCUAUGUGACCGAUCAUUAGUUAUGU [theeternabot_exclusion_KL_Theo_A_6]” was run?
A: Its value is 734 nM.

Q: Which “apparent KD of K4 kissing-loop reporter” value does the source give for “CGAGUGAUGUUCGUUUUUUUAUUUUUUUGACAGGAUAUGCGGAAACGCAGAAGGGUCACCUUUGAGUUAAAAGAAUUUAAAUUAU [Ex FMN A 23]” here?
A: Its value is 208 nM.

Same assay, conditions: Eterna round: R107; input ligand: none

Q: With “AGUACAAUGGCGGCCGCCACUCAACGCAGAUCAAAGAUCUGCGUUCACUCAGUGAUGUUGAGUGAGAGGACCGGGCCUUUGUACA [Omei KL Tryp B SS B v5]” as the sequence, how does the “apparent KD of K4 kissing-loop reporter” value read?
A: The value was 190 nM.

Q: “UGUCAUUGGUCGGCCGCCACUGAAAUAAAAGAGUGAUGUUCUUAAAAGACGGACAAAGUCUGUCAUAGGACCGGGACCGAUGACU [TrypBS 24 #SwitchBubble #StaticStem]” was tested. Which “apparent KD of K4 kissing-loop reporter” value did it give?
A: The value was 473 nM.

Q: With “UAUUAAUUGUCAGGAUAUCGUAUUCGAGUGAUGUUCGUAUAUCGACGAUAGUCGAUAUUAUCUAUACGAGAAGGGACAUUAUUUA [JR_SSFMNB_Sub006]” as the sequence, how does the “apparent KD of K4 kissing-loop reporter” value read?
A: Its value is 477 nM.

Q: With “UGCUUUAUCAGAAGGAGCGCGUAAGUUAUACUAAUAAUCAGUGAUGUUGAUAUAUGAUCUUUGCAGGUAGGUCGCUGAUAUAGCU [KL-XARG-B4]” as the sequence, how does the “apparent KD of K4 kissing-loop reporter” value read?
A: The value was 532 nM.

Q: Which “apparent KD of K4 kissing-loop reporter” value does the source give for “UUUAAAUAUAGUGAUGUUAUAUAACAAUGACGAGGACCGGUACGGCCGCCACUCGAGAGAGAUAAUGGUCUUACAAAUGUAAGUC [AstrosSSTryA#8]” here?
A: Its value is 852 nM.

Q: “GGAAUAACCUGGGAUACCAGUCGGAGGACUAGGGAUCGGAGUGAUGUUCUGGGAUGUUUCGGCCCUUGGCAGCUCUGGUUUUCCG [#2 Exclusion - Theophylline B Attempt #1 (HarryS)]” was tested. Which “apparent KD of K4 kissing-loop reporter” value did it give?
A: The value was 551 nM.

Q: Which “apparent KD of K4 kissing-loop reporter” value does the source give for “AUGACGGGUAGUGAUGUUAUCCACGAUGGGAAGGAUAUCAACCGUGUGAGAAGGUCCUUAUCGGUGCGGCACAUGCAGGUACUAC [theeternabot_sameState_KL_FMN_A_41]” here?
A: Its value is 346 nM.

Q: “UGAUACCAGGCGGCCGCCACUCCUGCAGGUCAAAGACCUGUGAAGCUGGUUCUCCAGUGAUGUUGGAGGACCGGGCCUGGUAUCU [FiskerMod 27 - Jieux - Exclusion - Tryptophan B]” was tested. Which “apparent KD of K4 kissing-loop reporter” value did it give?
A: Its value is 185 nM.

Q: How did the “apparent KD of K4 kissing-loop reporter” value turn out when “AAGGCACGGCUUCGGCCGUGCCAAAUAGAUACCAGCAUAAUAAUAUGCCCUUGGCAGCUAAAUAGAAAUUCAGUGAUGUUGGAUA [SS Theo A Tesla 2.1]” was run?
A: The value was 601 nM.

Q: How did the “apparent KD of K4 kissing-loop reporter” value turn out when “AGAUGUUUAGCUCAAAGAACGAAAAUGGAAGGAGCGUGCGAAAGCACAGGUAGGUCGCCAGUGAUGUUGGAACCUGAGCAUCAAA [#SwitchBubble 16 #K4Late]” was run?
A: Its value is 262 nM.

Q: How did the “apparent KD of K4 kissing-loop reporter” value turn out when “UUAACCAACAGCGAUACCAGCGUGGAGUGAUGUUCCGAGGAUCGGAGUGAUGUUCCGAAGCGCCCUUGGCAGCGCAGAAGCGCAA [Exclusion Theophylline B GF8]” was run?
A: Its value is 241 nM.

Q: Which “apparent KD of K4 kissing-loop reporter” value does the source give for “ACCUACCAUUAGUGAUGUUAAUGGACGGAAGGAGCGCAGAUAUCUGCAGGUAGGUCGCCGAAGGCUAGACAUUGUCUAGCCAUUA [AK1.1 SS Arginine A]” here?
A: The value was 197 nM.

Q: How did the “apparent KD of K4 kissing-loop reporter” value turn out when “CCUAUCUCUUACGAUACCAGUCAAUGAUAUUUUAUCAAUGCCCUCACCGAGUGAUGUUCGGACCCUUGGCAGCGUAUGGGAUAGG [kjnjmullin]” was run?
A: The value was 212 nM.

Q: “GUUACGCAUGGAAGGAGCGCGAAUUUAAUUAGUGAGUGAUGUUCACAUAAAAUGUAUAAUACGCAGGUAGGUCGCCAUGUGUAAC [whbob_Ex_Arginine_B_2th163]” was tested. Which “apparent KD of K4 kissing-loop reporter” value did it give?
A: The value was 77.2 nM.

Q: For “UCCUGCAAUCCACCACGAAAGUGGAUGGAUACCAGAGUCGAAAGACUCCCUUGGCAGCCAGUGAUGUUGGAGCAGGUAAAAUAAA”, which “apparent KD of K4 kissing-loop reporter” value is on record?
A: Its value is 630 nM.

Q: Which “apparent KD of K4 kissing-loop reporter” value does the source give for “AGUUAUGUAUCAGGAUAUUAGUGAUGUUUGUUUUUGUUAGUGAUGUUGAUAUUUGUUUUAUGUAUUUAAGAAGGGAUUGAGAUGU [qsszmullin]” here?
A: The value was 39.1 nM.

Q: With “ACAGGAUCGAAGAUCCUGAGCAGUCAAAACCGAGGACCGGUACGGCCGCCACUCGGAGUGAUGUUCCGAAGACUGCAAAAUAAAA [#SwitchBubble 3]” as the sequence, how does the “apparent KD of K4 kissing-loop reporter” value read?
A: The value was 1010 nM.

Q: Which “apparent KD of K4 kissing-loop reporter” value does the source give for “AAAUAAAGCAGUCACCCAGUGAUGUUGGAAGGAGCGUGCGAAAGCACAGGUAGGUCGCCAAAAUAAAGUGGCUGCGGCAAAGCCA [#SwitchBubble 25 #K4Early]” here?
A: The value was 399 nM.

Q: With “GCCAGAGCGCGAAGGAGCGCCCUGACAGGUUGCUGCCGUGGGCAGUGAUGUUGCUCAGUCCGGCAGGUAGGUCGCGUGCUCUGGC” as the sequence, how does the “apparent KD of K4 kissing-loop reporter” value read?
A: Its value is 193 nM.

Q: How did the “apparent KD of K4 kissing-loop reporter” value turn out when “UGUCAUUGGUCGGCCGCCACUUCAAGGUCAAAGACCAAAGAGUGAUGUUCUAAGACGAAAGUCAGAAGGACCGGGACCGAUGACU [TrypBS 10 #SwitchBubble #K4Middle]” was run?
A: Its value is 128 nM.

Q: Which “apparent KD of K4 kissing-loop reporter” value does the source give for “ACGCAUGGGCAAGGAUAUGGUAGUGAUGUUACCUUUGCGGUGCCGGGAACGAAUGACGGUCAUGCGCCAGAAGGUGCUCAGACAA [theeternabot_exclusion_KL_FMN_B_23]” here?
A: The value was 178 nM.
